What all share (assay): cell_activity
The test system of series [1] is zebrafish nd4 reverse mitoTALE-nickase-1 (synthetic (Xanthomonas TALE-FokI)?). The conditions noted are these: nd4 nickase-1 + nickase-2, zebrafish embryos.
Series [2] relates to zebrafish nd4 reverse mitoTALE-nickase-2 (synthetic (Xanthomonas TALE-FokI)?). To be noted: nd4 nickase-1 + nickase-2, zebrafish embryos.
Series [3] concerns zebrafish nd5 forward mitoTALE-nickase (synthetic (Xanthomonas TALE-FokI)?). To be noted: nd5+atp8 nickases, >90% with nd4 nuclease.
Series [4] has as its system zebrafish nd4 reverse mitoTALE nuclease (synthetic (Xanthomonas TALE-FokI)?). To be noted: co-injected with nd5 and atp8 nickases; heteroplasmic shift to about 2-10%.
In series [5] the test system is zebrafish nd4 forward mitoTALE-nickase-2 (synthetic (Xanthomonas TALE-FokI)?). The conditions noted are these: nd4 nickase-1 + nickase-2, zebrafish embryos.
Series [6] relates to zebrafish nd5 reverse mitoTALE-nickase (synthetic (Xanthomonas TALE-FokI)?). The conditions noted are these: nd5+atp8 nickases, >90% with nd4 nuclease.
Series [7] has as its system zebrafish atp8 reverse mitoTALE-nickase (synthetic (Xanthomonas TALE-FokI)?). To be noted: nd5+atp8 nickases, >90% with nd4 nuclease.
Series [8] relates to zebrafish nd4 forward mitoTALE nuclease (synthetic (Xanthomonas TALE-FokI)?). To be noted: co-injected with nd5 and atp8 nickases; heteroplasmic shift to about 2-10%.
Series [9] relates to zebrafish atp8 forward mitoTALE-nickase (synthetic (Xanthomonas TALE-FokI)?). The conditions noted are these: nd5+atp8 nickases, >90% with nd4 nuclease.
The subject of series [10] is zebrafish nd4 forward mitoTALE-nickase-1 (synthetic (Xanthomonas TALE-FokI)?). To be noted: nd4 nickase-1 + nickase-2, zebrafish embryos.

For the sequence “AAGTTCTGGTTTTAA (double strand) [zebrafish nd4 nickase-1 reverse half-site]”, the activity (% embryos with deletion) in series [1] was 50. Consider “ACGAGTTAGAAGCAT (double strand) [zebrafish nd4 nickase-2 reverse half-site]”, for which the activity (% embryos with deletion) in [2] was found to be 50. As for “AGGGCTAATGATAGT (double strand) [zebrafish nd5 forward half-site]”, in [3], the activity (% embryos with deletion) stood at 30. Consider “CGGGTAATAATGATT (double strand) [zebrafish nd4 nuclease reverse half-site]”, for which the activity (% embryos with deletion) in series [4] was greater than 90.

As for “GACTAAAATGAACCT (double strand) [zebrafish nd4 nickase-2 forward half-site]”, the activity (% embryos with deletion) in series [5] was 50.

In turn, “GCTAGATGTGGTTGG (double strand) [zebrafish nd5 reverse half-site]” registered an activity (% embryos with deletion) in [6] of 30. Take “TAGGTTGAATGTGAT (double strand) [zebrafish atp8 reverse half-site]”: in [7], the activity (% embryos with deletion) is 30. For “TATATTCGAAGCTAC (double strand) [zebrafish nd4 nuclease forward half-site]”, in series [8], the activity (% embryos with deletion) was greater than 90.

Sequence “TCCTTACTATTATTC (double strand) [zebrafish atp8 forward half-site]” had an activity (% embryos with deletion) in series [9] of 30. On to “TTACACCTAATTCCT (double strand) [zebrafish nd4 nickase-1 forward half-site]”, for which the activity (% embryos with deletion) in series [10] turned out to be 50.

(Values after patent publication US20190024073.)
